The record followed here is patent US20250073334A1 (University of California, published 2025).

Assay [1] has as its target SpyCatcher-H5 hemagglutinin construct (avian influenza A). The assay can be described thus: SpyTag/SpyCatcher reaction, SDS-PAGE.
For assay [2], the target named is SpyCatcher-CBU1910 fusion protein (Coxiella burnetii). The assay can be described thus: SpyTag/SpyCatcher conjugation, SDS-PAGE.

B1: CpG-ST-E2 nanoparticle (ST-E2 with CpG 1826 conjugated in the internal cavity) (other)
chain: MAHIVMVDAYKPTKGSGTAGGGSGSLSVPGPAAAEEKAAPAAAKPATTEGEFPETREKMSGIRRAIAKAMVHSKHTAPHVTLMDEADVTKLVAHRKKFKAIAAEKGIKLTFLPYVVKALVSALREYPVLNTSIDDETEEIIQKHYYNIGIAADTDRGLLVPVIKHADRKPIFALAQEINELAEKARDGKLTPGEMKGASCTITNIGSAGGQWFTPVINHPEVAILGIGRIAEKPIVRCGEIVAAPMLALSLSFDHRMIDGATAQKALNHIKRLLSDPELLLMEA
Take B1: the binding result in assay [1] and in assay [2] was “binds” in each case.
